Results taken from patent US20090203134A1, “REMEDY FOR NERVE CELL REGENERATION” (Kyoto University, priority 2005, published 2009).

B1: Wnt3a: Wnt3a protein (R&D Systems), a secretory glycoprotein of the Wnt family (protein, UniProt P56704 19-352, looked up)
Protein Wnt-3a: SYPIWWSLAVGPQYSSLGSQPILCASIPGLVPKQLRFCRNYVEIMPSVAEGIKIGIQECQHQFRGRRWNCTTVHDSLAIFGPVLDKATRESAFVHAIASAGVAFAVTRSCAEGTAAICGCSSRHQGSPGKGWKWGGCSEDIEFGGMVSREFADARENRPDARSAMNRHNNEAGRQAIASHMHLKCKCHGLSGSCEVKTCWWSQPDFRAIGDFLKDKYDSASEMVVEKHRESRGWVETLRPRYTYFKVPTERDLVYYEASPNFCEPNPETGSFGTRDRTCNVSSHGIDGCDLLCCGRGHNARAERRREKCRCVFHWCCYVSCQECTRVYDVHTCK

Columns and labels:
Muller cells [1] = test: Retinal organ culture, BrdU immunostaining of divided cells; format: cell-based, rat; settings: 4 days
Protocol: (§1) The retina excluding the pigment epithelium was obtained from a 6-week-old adult DA rat (obtained from Shimizu Laboratory Supplies Co., Ltd. (Kyoto)) and a retinal organ culture was then carried out on a Millicell chamber filter. The retinal organ culture was conducted according to a method described in Methods 2002; 28: 387-395 and Brain Res 2002; 954: 286-293. The culture medium used was 50% Minimum Essential Medium +HEPES (Invitrogen Corporation)/25% Hank's solution (Invitrogen Corporation)/25% inactivated horse serum/200 μM L-glutamine/5.75 mg/ml glucose.
Wnt3a (100 ng/ml; R&D Systems) and BrdU (5ng/ml; SIGMA) were added to the culture medium everyday and a frozen specimen was then prepared after 4 days, followed by investigating the presence or absence of BrdU-positive divided cells by an immunological staining with a BrdU antibody.
Further, an inhibitor of glycogen synthase kinase 3β(GSK-3β), AR-A014418(J, Biol. Chem., Vol, 278, No. 46, p45937-45945, 2003), was added to a culture medium for the retina organ culture and the effect thereof was examined. […] In contrast, the number of BrdU-positive cells in control without the addition of AR-AO14418 was small.

Muller cells [2] = test: Retinal organ culture, Rhodopsin expression of divided cells (differentiation into retinal nerve cells); format: cell-based, rat; settings: 4 day culture with Wnt3a, then 1 week without Wnt3a
Protocol: as §1
Further, after 4 day culture with the addition of Wnt3a, the culture medium was changed, and the culture was then cultured for 1 week without Wnt3a.

Row | Molecule | number of BrdU-positive cells (Muller cells [1]; retina organ culture, 5 μM AR-A014418 together with BrdU, versus control without addition, FIG. 4) | expression of Rhodopsin (marker of the visual cells) in divided cells (Muller cells [2]) | BrdU-positive divided cells (immunological staining with a BrdU antibody) (Muller cells [1]; adult DA rat retinal organ culture, Wnt3a 100 ng/ml added everyday, compared with control without Wnt3a, FIG. 1) | ratio of the divided cells (number of divided cells in INL) (Muller cells [1]; adult DA rat retinal organ culture, Wnt3a 100 ng/ml, FIG. 2) | identity of divided cells (glutamine synthetase and BrdU immunological staining) (Muller cells [1]; adult DA rat retinal organ culture, Wnt3a 100 ng/ml, FIG. 3)
1 | COc1ccc(CNC(=O)Nc2ncc([N+](=O)[O-])s2)cc1 [AR-A014418, reference compound] | the number of BrdU-positive cells was increased |  |  |  | 
2 | B1 |  | a part of the divided cells express Rhodopsin | many BrdU-positive divided cells in the retinal inner nuclear layer (INL) | dramatic increase in the number of the divided cells in INL | most of these divided cells were identified as glutamine synthetase positive Muller cells
